Patent publication US20050192282A1, “Chemokine inhibiting piperazine derivatives and their use to treat multiple myeloma” (Schering Aktiengesellschaft, priority 2004, published 2005)
“Also recorded” adds a separate entry of the source.

Key:
Human CCR1 = biological target: T1, Human CCR1 (Homo sapiens, UniProt P32246); settings: cited from earlier work
T1 sequence (P32246 1-355): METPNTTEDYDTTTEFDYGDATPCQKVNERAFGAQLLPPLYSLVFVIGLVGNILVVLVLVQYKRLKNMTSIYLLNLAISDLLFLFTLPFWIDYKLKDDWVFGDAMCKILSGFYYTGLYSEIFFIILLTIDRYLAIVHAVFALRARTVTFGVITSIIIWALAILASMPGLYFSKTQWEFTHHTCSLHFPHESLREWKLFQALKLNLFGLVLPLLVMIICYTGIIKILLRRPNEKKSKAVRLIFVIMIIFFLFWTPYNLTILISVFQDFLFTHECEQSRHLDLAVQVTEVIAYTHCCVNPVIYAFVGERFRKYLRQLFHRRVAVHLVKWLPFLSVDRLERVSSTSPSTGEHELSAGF

[1] = test system: β1 integrin mRNA expression in MM.1S human Myeloma cells; assay: RT-PCR analysis of β1 integrin mRNA expression in MM.1S myeloma cells cocultured with ST2 stromal cells; assay type: cell-based; settings: MM.1S cocultured with ST2; treated with 1 ng/ml of rhMIP-1a, 12 hours

Molecule: MCP-1: human chemokine binding CCR1 with low affinity
- ability to signal through human CCR1 (Human CCR1): neither ligand is able to signal

B1: MIP-1β: human chemokine binding CCR1 with low affinity (protein, UniProt P13236 24-92, looked up)
C-C motif chemokine 4: APMGSDPPTACCFSYTARKLPRNFVVDYYETSSLCSQPAVVFQTKRSKQVCADPSESWVQEYVYDLELN
- ability to signal through human CCR1 (Human CCR1): neither ligand is able to signal

B2: MIP-1α: human CC chemokine, ligand for CCR1 and CCR5; recombinant form used as stimulus (protein, UniProt P10147 24-92, looked up)
C-C motif chemokine 3: SLAADTPTACCFSYTSRQIPQNFIADYFETSSQCSKPGVIFLTKRSRQVCADPSEEWVQKYVSDLELSA
- β1 integrin mRNA expression levels [1]: significantly increased; also recorded: significantly enhanced
